Source: publication doi:10.1101/2020.09.15.297887

Target: PARP1 (UniProt P09874 1-1014)
Test: fluorescence polarization

PARP1, sequence (P09874 whole entry): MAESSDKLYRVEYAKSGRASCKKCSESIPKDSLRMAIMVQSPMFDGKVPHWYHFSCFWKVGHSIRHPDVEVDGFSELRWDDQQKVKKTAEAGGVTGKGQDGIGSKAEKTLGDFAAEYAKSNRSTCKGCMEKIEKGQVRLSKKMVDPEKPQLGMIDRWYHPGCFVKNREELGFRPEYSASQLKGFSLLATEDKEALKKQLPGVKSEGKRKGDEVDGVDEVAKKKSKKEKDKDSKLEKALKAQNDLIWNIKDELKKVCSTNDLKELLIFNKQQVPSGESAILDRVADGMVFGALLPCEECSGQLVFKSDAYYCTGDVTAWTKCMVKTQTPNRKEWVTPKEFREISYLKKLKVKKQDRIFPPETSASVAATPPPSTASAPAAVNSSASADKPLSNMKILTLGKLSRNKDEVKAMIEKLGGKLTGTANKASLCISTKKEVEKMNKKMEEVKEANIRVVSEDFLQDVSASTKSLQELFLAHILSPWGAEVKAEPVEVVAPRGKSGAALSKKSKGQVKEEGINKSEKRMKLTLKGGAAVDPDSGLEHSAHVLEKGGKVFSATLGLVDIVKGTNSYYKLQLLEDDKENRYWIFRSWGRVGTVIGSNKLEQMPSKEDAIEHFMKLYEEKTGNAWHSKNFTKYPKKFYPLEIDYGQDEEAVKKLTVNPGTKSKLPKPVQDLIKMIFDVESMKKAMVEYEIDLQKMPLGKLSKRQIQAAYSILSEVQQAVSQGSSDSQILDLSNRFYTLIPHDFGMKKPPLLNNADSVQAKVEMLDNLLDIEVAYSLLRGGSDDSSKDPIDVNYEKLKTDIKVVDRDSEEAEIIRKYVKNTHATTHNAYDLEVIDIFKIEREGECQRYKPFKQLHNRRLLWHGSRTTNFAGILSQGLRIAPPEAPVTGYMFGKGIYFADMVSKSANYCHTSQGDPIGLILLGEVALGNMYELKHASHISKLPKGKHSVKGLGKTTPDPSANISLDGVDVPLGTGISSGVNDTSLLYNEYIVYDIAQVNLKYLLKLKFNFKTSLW

GCTGAGCTTCTGGTGAAGCTCAGCTCGCGGCAGCTGGTGCTGCCGCGA (structured_DNA, internal fluorescein-dT (iFluorT) at position 8) [DNA dumbbell with single-strand break] showed a Kd of 71 nM.
